In FireProtDB (doi:10.1021/bi9815243):

B1: Guanyl-specific ribonuclease T1, P00651 (parent)
chain: MMYSKLLTLTTLLLPTALALPSLVERACDYTCGSNCYSSSDVSTAQAAGYQLHEDGETVGSNSYPHKYNNYEGFDFSVSSPYYEWPILSSGDVYSGGSPGADRVVFNENNQLAGVITHTGASGNNFVECT

Variants of: B1
Details: Aspergillus oryzae (strain ATCC 42149 / RIB 40); pH 2.7; 25 °C; Urea; CD; glycine 30 mM; reversible: yes (>95%); structure 1RN1; whole UniProt chain shown

With MMYSKLLTLTTLLLPTALALPSLVERACDYTCGSNCYSSSDVSTAQAAGYQLHEDGETVGSNSYPHKYNDYEGFDFSVSSPYYEWPILSSGDVYSGGSPGADRVVFNENNQLAGVITHTGASGNNFVECT the “ddG of mutation (higher = less stable)” value was 0.5 kcal/mol.

MMYSKLLTLTTLLLPTALALPSLVERACDYTCGSNCYSSSDVSTAQAAGYQLHEDGETVGSNSYPHKYNDYEGFDFSVSSPYYEWPILSSGDVYSGGSPGADRVVFNENNQLAGVITHTGASGNNFVECT showed a denaturant m value of 1.66 kcal/mol/M.

In the case of MMYSKLLTLTTLLLPTALALPSLVERACDYTCGSNCYSSSDVSTAQAAGYQLHEDGETVGSNSYPHKYNDYEGFDFSVSSPYYEWPILSSGDVYSGGSPGADRVVFNENNQLAGVITHTGASGNNFVECT, the “denaturant midpoint (higher = more stable)” value (“denaturant midpoint” below) is reported as 3.45 M.

In the case of MMYSKLLTLTTLLLPTALALPSLVERACDYTCGSNCYSSSDVSTAQAAGYQLHEDGETVGSNSYPHKYNDYEGFDFSVSSPYYEWPILSSGDVYSGGSPGADRVVFNENNQLAGVITHTGASGNNFVECT, the unfolding free energy is reported as 5.71 kcal/mol.

Same assay, conditions: Aspergillus oryzae (strain ATCC 42149 / RIB 40); pH 2.7; 25 °C; Urea; Fluorescence; glycine 30 mM; transition: 2; reversible: Yes; structure 1RN1; whole UniProt chain shown

Work on MMYSKLLTLTTLLLPTALALPSLVERACDYTCGSNCYSSSDVSTAQAAGYQLHEDGETVGSNSYPHKYNDYEGFDFSVSSPYYEWPILSSGDVYSGGSPGADRVVFNENNQLAGVITHTGASGNNFVECT yielded a denaturant m value of 1.66 kcal/mol/M.

With MMYSKLLTLTTLLLPTALALPSLVERACDYTCGSNCYSSSDVSTAQAAGYQLHEDGETVGSNSYPHKYNDYEGFDFSVSSPYYEWPILSSGDVYSGGSPGADRVVFNENNQLAGVITHTGASGNNFVECT the “denaturant midpoint” value was 3.45 M.

For MMYSKLLTLTTLLLPTALALPSLVERACDYTCGSNCYSSSDVSTAQAAGYQLHEDGETVGSNSYPHKYNDYEGFDFSVSSPYYEWPILSSGDVYSGGSPGADRVVFNENNQLAGVITHTGASGNNFVECT, the unfolding free energy was 5.71 kcal/mol.

Same assay, conditions: Aspergillus oryzae (strain ATCC 42149 / RIB 40); pH 7; 25 °C; Urea; CD; MOPS 30 mM; reversible: yes (>95%); structure 1RN1; whole UniProt chain shown

In order of rising “ddG of mutation (higher = less stable)” value:
1. MMYSKLLTLTTLLLPTALALPSLVERACDYTCGSNCYSSSDVSTAQAAGYQLHEDGETVGSNSYPHKYNSYEGFDFSVSSPYYEWPILSSGDVYSGGSPGADRVVFNENNQLAGVITHTGASGNNFVECT  1.9 kcal/mol
2. MMYSKLLTLTTLLLPTALALPSLVERACDYTCGSNCYSSSDVSTAQAAGYQLHEDGETVGSNSYPHKYNDYEGFDFSVSSPYYEWPILSSGDVYSGGSPGADRVVFNENNQLAGVITHTGASGNNFVECT  2 kcal/mol

In order of falling denaturant m value:
1. MMYSKLLTLTTLLLPTALALPSLVERACDYTCGSNCYSSSDVSTAQAAGYQLHEDGETVGSNSYPHKYNDYEGFDFSVSSPYYEWPILSSGDVYSGGSPGADRVVFNENNQLAGVITHTGASGNNFVECT  1.25 kcal/mol/M
2. MMYSKLLTLTTLLLPTALALPSLVERACDYTCGSNCYSSSDVSTAQAAGYQLHEDGETVGSNSYPHKYNSYEGFDFSVSSPYYEWPILSSGDVYSGGSPGADRVVFNENNQLAGVITHTGASGNNFVECT  1.22 kcal/mol/M

In order of falling “denaturant midpoint” value:
1. MMYSKLLTLTTLLLPTALALPSLVERACDYTCGSNCYSSSDVSTAQAAGYQLHEDGETVGSNSYPHKYNSYEGFDFSVSSPYYEWPILSSGDVYSGGSPGADRVVFNENNQLAGVITHTGASGNNFVECT  3.6 M
2. MMYSKLLTLTTLLLPTALALPSLVERACDYTCGSNCYSSSDVSTAQAAGYQLHEDGETVGSNSYPHKYNDYEGFDFSVSSPYYEWPILSSGDVYSGGSPGADRVVFNENNQLAGVITHTGASGNNFVECT  3.54 M

In order of falling unfolding free energy:
1. MMYSKLLTLTTLLLPTALALPSLVERACDYTCGSNCYSSSDVSTAQAAGYQLHEDGETVGSNSYPHKYNDYEGFDFSVSSPYYEWPILSSGDVYSGGSPGADRVVFNENNQLAGVITHTGASGNNFVECT  4.43 kcal/mol
2. MMYSKLLTLTTLLLPTALALPSLVERACDYTCGSNCYSSSDVSTAQAAGYQLHEDGETVGSNSYPHKYNSYEGFDFSVSSPYYEWPILSSGDVYSGGSPGADRVVFNENNQLAGVITHTGASGNNFVECT  4.39 kcal/mol

Same assay, conditions: Aspergillus oryzae (strain ATCC 42149 / RIB 40); pH 7; 25 °C; Urea; Fluorescence; MOPS 30 mM; transition: 2; reversible: Yes; structure 1RN1; whole UniProt chain shown

In order of falling “ddG of mutation (higher = less stable)” value:
1. MMYSKLLTLTTLLLPTALALPSLVERACDYTCGSNCYSSSDVSTAQAAGYQLHEDGETVGSNSYPHKYNDYEGFDFSVSSPYYEWPILSSGDVYSGGSPGADRVVFNENNQLAGVITHTGASGNNFVECT  2 kcal/mol
2. MMYSKLLTLTTLLLPTALALPSLVERACDYTCGSNCYSSSDVSTAQAAGYQLHEDGETVGSNSYPHKYNSYEGFDFSVSSPYYEWPILSSGDVYSGGSPGADRVVFNENNQLAGVITHTGASGNNFVECT  1.9 kcal/mol

In order of falling denaturant m value:
1. MMYSKLLTLTTLLLPTALALPSLVERACDYTCGSNCYSSSDVSTAQAAGYQLHEDGETVGSNSYPHKYNDYEGFDFSVSSPYYEWPILSSGDVYSGGSPGADRVVFNENNQLAGVITHTGASGNNFVECT  1.25 kcal/mol/M
2. MMYSKLLTLTTLLLPTALALPSLVERACDYTCGSNCYSSSDVSTAQAAGYQLHEDGETVGSNSYPHKYNSYEGFDFSVSSPYYEWPILSSGDVYSGGSPGADRVVFNENNQLAGVITHTGASGNNFVECT  1.22 kcal/mol/M

In order of falling “denaturant midpoint” value:
1. MMYSKLLTLTTLLLPTALALPSLVERACDYTCGSNCYSSSDVSTAQAAGYQLHEDGETVGSNSYPHKYNSYEGFDFSVSSPYYEWPILSSGDVYSGGSPGADRVVFNENNQLAGVITHTGASGNNFVECT  3.6 M
2. MMYSKLLTLTTLLLPTALALPSLVERACDYTCGSNCYSSSDVSTAQAAGYQLHEDGETVGSNSYPHKYNDYEGFDFSVSSPYYEWPILSSGDVYSGGSPGADRVVFNENNQLAGVITHTGASGNNFVECT  3.54 M

In order of rising unfolding free energy:
1. MMYSKLLTLTTLLLPTALALPSLVERACDYTCGSNCYSSSDVSTAQAAGYQLHEDGETVGSNSYPHKYNSYEGFDFSVSSPYYEWPILSSGDVYSGGSPGADRVVFNENNQLAGVITHTGASGNNFVECT  4.39 kcal/mol
2. MMYSKLLTLTTLLLPTALALPSLVERACDYTCGSNCYSSSDVSTAQAAGYQLHEDGETVGSNSYPHKYNDYEGFDFSVSSPYYEWPILSSGDVYSGGSPGADRVVFNENNQLAGVITHTGASGNNFVECT  4.43 kcal/mol

Same assay, conditions: Aspergillus oryzae (strain ATCC 42149 / RIB 40); pH 7; 50.8 °C; Thermal; CD; MOPS 30 mM; reversible: yes (>95%); structure 1RN1; whole UniProt chain shown

In order of falling “ddG of mutation (higher = less stable)” value:
1. MMYSKLLTLTTLLLPTALALPSLVERACDYTCGSNCYSSSDVSTAQAAGYQLHEDGETVGSNSYPHKYNDYEGFDFSVSSPYYEWPILSSGDVYSGGSPGADRVVFNENNQLAGVITHTGASGNNFVECT  1.6 kcal/mol
2. MMYSKLLTLTTLLLPTALALPSLVERACDYTCGSNCYSSSDVSTAQAAGYQLHEDGETVGSNSYPHKYNSYEGFDFSVSSPYYEWPILSSGDVYSGGSPGADRVVFNENNQLAGVITHTGASGNNFVECT  1.5 kcal/mol

Same assay, conditions: Aspergillus oryzae (strain ATCC 42149 / RIB 40); pH 7; Thermal; CD; MOPS 30 mM; reversible: yes (>95%); structure 1RN1; whole UniProt chain shown

In order of falling Tm:
1. MMYSKLLTLTTLLLPTALALPSLVERACDYTCGSNCYSSSDVSTAQAAGYQLHEDGETVGSNSYPHKYNSYEGFDFSVSSPYYEWPILSSGDVYSGGSPGADRVVFNENNQLAGVITHTGASGNNFVECT  45.8 °C
2. MMYSKLLTLTTLLLPTALALPSLVERACDYTCGSNCYSSSDVSTAQAAGYQLHEDGETVGSNSYPHKYNDYEGFDFSVSSPYYEWPILSSGDVYSGGSPGADRVVFNENNQLAGVITHTGASGNNFVECT  45.3 °C

In order of rising “change of melting temperature, mutant - wild type (higher = more stable)” value:
1. MMYSKLLTLTTLLLPTALALPSLVERACDYTCGSNCYSSSDVSTAQAAGYQLHEDGETVGSNSYPHKYNDYEGFDFSVSSPYYEWPILSSGDVYSGGSPGADRVVFNENNQLAGVITHTGASGNNFVECT  -5.5 °C
2. MMYSKLLTLTTLLLPTALALPSLVERACDYTCGSNCYSSSDVSTAQAAGYQLHEDGETVGSNSYPHKYNSYEGFDFSVSSPYYEWPILSSGDVYSGGSPGADRVVFNENNQLAGVITHTGASGNNFVECT  -5 °C

In order of rising “unfolding enthalpy (van 't Hoff)” value:
1. MMYSKLLTLTTLLLPTALALPSLVERACDYTCGSNCYSSSDVSTAQAAGYQLHEDGETVGSNSYPHKYNDYEGFDFSVSSPYYEWPILSSGDVYSGGSPGADRVVFNENNQLAGVITHTGASGNNFVECT  84.2 kcal/mol
2. MMYSKLLTLTTLLLPTALALPSLVERACDYTCGSNCYSSSDVSTAQAAGYQLHEDGETVGSNSYPHKYNSYEGFDFSVSSPYYEWPILSSGDVYSGGSPGADRVVFNENNQLAGVITHTGASGNNFVECT  89.6 kcal/mol

Same assay, conditions: Aspergillus oryzae (strain ATCC 42149 / RIB 40); pH 7; Thermal; CD; MOPS 30 mM; transition: 2; reversible: Yes; structure 1RN1; whole UniProt chain shown

Variant MMYSKLLTLTTLLLPTALALPSLVERACDYTCGSNCYSSSDVSTAQAAGYQLHEDGETVGSNSYPHKYNSYEGFDFSVSSPYYEWPILSSGDVYSGGSPGADRVVFNENNQLAGVITHTGASGNNFVECT has a Tm of 45.8 °C.

In the case of MMYSKLLTLTTLLLPTALALPSLVERACDYTCGSNCYSSSDVSTAQAAGYQLHEDGETVGSNSYPHKYNSYEGFDFSVSSPYYEWPILSSGDVYSGGSPGADRVVFNENNQLAGVITHTGASGNNFVECT, the “change of melting temperature, mutant - wild type (higher = more stable)” value is reported as -5 °C.

In the case of MMYSKLLTLTTLLLPTALALPSLVERACDYTCGSNCYSSSDVSTAQAAGYQLHEDGETVGSNSYPHKYNSYEGFDFSVSSPYYEWPILSSGDVYSGGSPGADRVVFNENNQLAGVITHTGASGNNFVECT, the “unfolding enthalpy (van 't Hoff)” value is reported as 89.6 kcal/mol.
